# Assay results reported in PMC2607015, “The Cell Adhesion Molecule “CAR” and Sialic Acid on Human Erythrocytes Influence Adenovirus In Vivo Biodistribution” (PLoS Pathogens, 2009).
# Assays:
# [1] = target: T1, CAV-2 fiber head (CAV-2H^wt) (Canine adenovirus 2 strain Toronto A 26-61, UniProt Q65914); assay: X-ray crystal structure ([…] Å); type: binding; details: crystals grown with 8 mM and soaked in about 80 mM ligand, pH 7.4; Neu5Ac moiety bound at trimer periphery (Asn435, Ser419, Ser416, Gln417, Arg515)
# T1 construct: gene L5; fiber head domain residues 358-542, N-terminal His-tag cleaved with TEV, pPROEX HTb; homotrimer
# [2] = target: T2, HAd37 fiber head in complex with CAR D1 (Human adenovirus D37, UniProt Q64823); assay: X-ray crystal structure ([…] Å); type: binding; details: ligand soaked at 10 to 50 mM; ternary complex with CAR D1; Neu5Ac site of fiber head, not overlapping CAR site; HAd37 Neu5Ac site near the three-fold axis
# T2 construct: gene L5; fiber head residues 177-365 with CAR domain D1; one monomer of each in asymmetric unit (space group I23, trimer by symmetry); with Coxsackievirus and adenovirus receptor (human), Ig-like domain D1
# [3] = target: CAR D1 (human) (UniProt P78310)
# CAR D1 (human), sequence (P78310 20-140): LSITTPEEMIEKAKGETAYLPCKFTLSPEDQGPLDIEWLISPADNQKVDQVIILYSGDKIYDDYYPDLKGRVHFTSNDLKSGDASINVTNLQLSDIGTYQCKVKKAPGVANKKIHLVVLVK
# [4] = target: wild type CAV-2 fiber head (canine adenovirus serotype 2 (CAV-2)) (UniProt Q65914); assay: crystal structure; crystals of the CAV-2 fiber head - CAR D1 complex (space group I422) soaked with 10 to 50 mM sialyl-D-lactose; 2.9 Å
# [5] = target: wild type CAV-2 fiber head (canine adenovirus serotype 2 (CAV-2)) (UniProt Q65914); assay: crystal structure; untagged CAV-2 fiber head crystallised with sialyl-D-lactose; 1.9 Å
molecule,measurement,setting,value
"CC(=O)N[C@H]1[C@H]([C@H](O)[C@H](O)CO)O[C@@](O[C@H]2[C@@H](O)[C@@H](CO)O[C@@H](O[C@H]3[C@H](O)[C@@H](O)C(O)O[C@@H]3CO)[C@@H]2O)(C(=O)O)C[C@@H]1O (stereo partly drawn) [sialyl-D-lactose, α2-3 N-acetylneuraminosyl-D-lactose]",X-ray crystal structure (1.9 Å),[1],clear density for six N-acetyl neuraminic acid (Neu5AC) moieties in the asymmetric unit
same,X-ray crystal structure (1.55 Å),[2],one CAR D1 molecule and one sialyl-D-lactose molecule in the asymmetric unit
CAV-2H^CAR−: CAV-2 fiber head with E384A mutation (CAR binding site) (from UniProt Q65914 358-542) (domain or fragment),fold reduction of CAV-2 hemagglutination of human erythrocytes (CAR on the erythrocytes) after pre-incubating the erythrocytes with the fiber head,[3],2 fold
CAV-2H^SA−1: CAV-2 fiber head mutant R515A (from UniProt Q65914 358-542) (domain or fragment),fold reduction of CAV-2 hemagglutination of human erythrocytes (CAR on the erythrocytes) after pre-incubating the erythrocytes with the fiber head,[3],16 fold
wild type CAV-2 fiber head (from UniProt Q65914 358-542) (domain or fragment),fold reduction of CAV-2 hemagglutination of human erythrocytes (CAR on the erythrocytes) after pre-incubating the erythrocytes with the fiber head,[3],> 256 fold
same,stoichiometry N,[4],3
same,stoichiometry N,[5],3
